Assay results taken from publication PMC5842915 (Biochemistry, 2017).
Values joined by “and” are separate entries in the source; they are usually repeats but may differ in a detail not shown here. Identical values can stand only once. Like-named read-outs stand apart in the source and are kept apart here. One block for each molecule: values may come before it.

Tests used:
Bcl-2 (Homo sapiens) [1] = biological target: Bcl-2 (Homo sapiens) (UniProt P10415); details: cited from earlier work
[2] = biological target: BECN1 CC CC (Homo sapiens) (UniProt Q14457); details: cited from earlier work
Bcl-2 (Homo sapiens) [3] = biological target: Bcl-2 (Homo sapiens) (UniProt P10415); details: cited from earlier work; remark: listed apart in the source
[4] = biological target: BECN^1-265 (BECN1 residues 1-265, BARA-less construct) (human) (UniProt Q14457); assay: AUC
[5] = biological target: V250A/M254A/L261A mutant of full-length BECN1 (human) (UniProt Q14457); assay: AUC
[6] = biological target: human Bcl-2 (residues 1-218) (human, UniProt P10415 1-218); assay: ITC
human Bcl-2 (residues 1-218), sequence (P10415 1-218): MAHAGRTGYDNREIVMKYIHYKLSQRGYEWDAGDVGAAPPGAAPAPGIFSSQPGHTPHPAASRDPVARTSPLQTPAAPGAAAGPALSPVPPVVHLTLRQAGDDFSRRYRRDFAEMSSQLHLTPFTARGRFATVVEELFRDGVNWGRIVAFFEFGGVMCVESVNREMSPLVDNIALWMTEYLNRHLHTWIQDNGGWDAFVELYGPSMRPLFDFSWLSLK

Bcl-2 (Homo sapiens), sequence (P10415 whole entry, the tested form may be a part): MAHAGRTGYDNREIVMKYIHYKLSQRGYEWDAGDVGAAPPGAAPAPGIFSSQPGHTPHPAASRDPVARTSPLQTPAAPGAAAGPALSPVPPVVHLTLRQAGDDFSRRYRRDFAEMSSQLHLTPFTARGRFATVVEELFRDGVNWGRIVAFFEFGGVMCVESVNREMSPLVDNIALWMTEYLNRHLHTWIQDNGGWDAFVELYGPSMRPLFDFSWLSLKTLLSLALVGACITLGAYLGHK

Molecule: BECN1 BH3 peptide 105-130 (from UniProt Q14457)
- Kd (Bcl-2 (Homo sapiens) [1]): 8 µM

Molecule: BECN1 CC CC (from UniProt Q14457)
- Kd [2]: 48 µM and 45 µM

Molecule: BECN1 IDR 1-135 (from UniProt Q14457)
- Kd (Bcl-2 (Homo sapiens) [3]): 8.6 µM

B1: BECN1 BH3 peptide (residues 97-126) (peptide)
peptide: FTLIGEASDGGTMENLSRRLKVTGDLFDIM
- Kd [6]: 9.6 µM

The remaining lines, values ahead:

- Kd [4]: 1.35 µM
Molecule: BECN^1-265 (BECN1 residues 1-265, BARA-less construct) (from UniProt Q14457 1-265) (domain or fragment)

- Kd [5]: 1.86 µM
Molecule: V250A/M254A/L261A mutant of full-length BECN1 (from UniProt Q14457 1-450) (natural protein)
